Assay results taken from publication PMC3547847, “A Newly Uncovered Group of Distantly Related Lysine Methyltransferases Preferentially Interact with Molecular Chaperones to Regulate Their Activity” (PLoS Genetics, 2013).

Assays:
Assay in all cases: pull-down; 500 ng GST-tagged METTL21D with 100 ng His-tagged protein and Glutathione Sepharose 4B beads, 1 hour at 4°C, 50 mM NaCl, 50 mM HEPES-KOH pH 7.6, 0.1% NP-40, 0.5% charcoal-stripped FBS; bound His-tagged proteins detected by anti-6X His Western blot; AdoMet or AdoHcy present in Figure 6E; VCP and ASPSCR1 also added together (more binding)
Conditions in all cases: both partners purified
VCP-His R159G = target: T1, VCP-His R159G (human, UniProt P55072 1-806, R159G)
T1 construct: VCP/p97, human, with the ALS-linked substitution R159G; also called VCP mutant R159G; source: E. coli One Shot BL21 Star (DE3), purified (Ni-NTA Agarose)

VCP-His R155H = target: T2, VCP-His R155H (human, UniProt P55072 1-806, R155H)
T2 construct: VCP/p97, human, with the IBMPFD- and ALS-linked substitution R155H; also called VCP mutant R155H; source: E. coli One Shot BL21 Star (DE3), purified (Ni-NTA Agarose)

VCP-His = target: T3, VCP-His (human, UniProt P55072 1-806)
T3 construct: VCP/p97, human; also called His-tagged VCP; wild-type VCP-His; source: E. coli One Shot BL21 Star (DE3), purified (Ni-NTA Agarose)

ASPSCR1-His = target: T4, ASPSCR1-His (human, UniProt Q9BZE9 1-553)
T4 construct: ASPSCR1/UBXD9, human; also called full-length ASPSCR1; His-tagged ASPSCR1; source: E. coli One Shot BL21 Star (DE3), purified (Ni-NTA Agarose)
T4 sequence (looked up): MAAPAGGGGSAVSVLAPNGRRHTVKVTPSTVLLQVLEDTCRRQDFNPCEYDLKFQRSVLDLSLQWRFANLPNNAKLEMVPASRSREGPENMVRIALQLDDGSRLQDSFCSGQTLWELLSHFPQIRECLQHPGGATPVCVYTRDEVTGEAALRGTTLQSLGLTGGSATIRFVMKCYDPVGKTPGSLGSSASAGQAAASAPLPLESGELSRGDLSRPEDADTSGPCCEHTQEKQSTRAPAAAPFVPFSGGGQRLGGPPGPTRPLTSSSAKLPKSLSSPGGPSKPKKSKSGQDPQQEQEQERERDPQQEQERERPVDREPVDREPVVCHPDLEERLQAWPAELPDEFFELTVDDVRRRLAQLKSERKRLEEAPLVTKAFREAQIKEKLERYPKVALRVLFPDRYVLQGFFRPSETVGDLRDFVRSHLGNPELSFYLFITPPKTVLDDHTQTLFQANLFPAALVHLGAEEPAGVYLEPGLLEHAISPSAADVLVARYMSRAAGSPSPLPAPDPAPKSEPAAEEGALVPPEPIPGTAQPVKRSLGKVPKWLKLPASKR

[1] = target: T5, C-terminal fragment of ASPSCR1 (residues 280–553) (human, UniProt Q9BZE9 280-553)
T5 construct: ASPSCR1/UBXD9, human, residues 280-553; also called C-terminal half of ASPSCR1; source: E. coli One Shot BL21 Star (DE3), purified (Ni-NTA Agarose)
T5 sequence (looked up): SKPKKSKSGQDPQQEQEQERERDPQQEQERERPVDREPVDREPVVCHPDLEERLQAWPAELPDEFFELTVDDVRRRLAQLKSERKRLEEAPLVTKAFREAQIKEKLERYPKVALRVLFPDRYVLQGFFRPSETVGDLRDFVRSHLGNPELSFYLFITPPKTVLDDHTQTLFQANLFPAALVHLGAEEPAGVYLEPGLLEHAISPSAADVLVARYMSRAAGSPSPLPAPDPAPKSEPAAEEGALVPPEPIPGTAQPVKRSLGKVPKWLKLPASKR

VCP-His R191Q = target: T6, VCP-His R191Q (human, UniProt P55072 1-806, R191Q)
T6 construct: VCP/p97, human, with the IBMPFD- and ALS-linked substitution R191Q; also called VCP mutant R191Q; source: E. coli One Shot BL21 Star (DE3), purified (Ni-NTA Agarose)

Measured: binding result

T1 sequence (P55072 whole entry R159G): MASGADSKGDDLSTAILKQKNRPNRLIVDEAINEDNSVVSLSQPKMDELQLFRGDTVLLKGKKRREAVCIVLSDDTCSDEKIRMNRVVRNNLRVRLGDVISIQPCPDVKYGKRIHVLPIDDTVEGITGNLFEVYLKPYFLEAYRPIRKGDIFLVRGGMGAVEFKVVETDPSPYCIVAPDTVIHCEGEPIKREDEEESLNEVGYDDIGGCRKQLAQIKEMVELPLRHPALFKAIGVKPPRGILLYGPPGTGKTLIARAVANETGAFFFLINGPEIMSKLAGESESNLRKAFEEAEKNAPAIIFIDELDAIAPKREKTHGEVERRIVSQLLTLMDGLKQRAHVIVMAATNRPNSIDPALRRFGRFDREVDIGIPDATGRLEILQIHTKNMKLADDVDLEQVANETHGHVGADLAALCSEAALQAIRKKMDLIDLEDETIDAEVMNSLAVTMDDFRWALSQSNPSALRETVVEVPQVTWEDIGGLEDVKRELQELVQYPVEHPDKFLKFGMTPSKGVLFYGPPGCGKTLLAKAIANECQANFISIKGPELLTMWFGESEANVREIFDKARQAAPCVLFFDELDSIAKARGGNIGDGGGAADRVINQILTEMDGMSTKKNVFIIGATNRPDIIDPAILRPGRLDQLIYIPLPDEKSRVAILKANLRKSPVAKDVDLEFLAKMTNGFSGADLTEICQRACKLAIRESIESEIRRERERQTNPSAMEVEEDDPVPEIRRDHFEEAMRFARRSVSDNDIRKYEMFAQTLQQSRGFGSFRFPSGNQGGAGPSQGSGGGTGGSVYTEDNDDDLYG
T3 sequence (P55072 whole entry): as the sequence (P55072 whole entry R159G) above, with G159R counted along it
T6 sequence (P55072 whole entry R191Q): as the sequence (P55072 whole entry R159G) above, with G159R, R191Q counted along it
T2 sequence (P55072 whole entry R155H): as the sequence (P55072 whole entry R159G) above, with R155H, G159R counted along it

B1: GST-METTL21D (enzyme, human, UniProt Q9H867 1-229, looked up)
chain: MADTLESSLEDPLRSFVRVLEKRDGTVLRLQQYSSGGVGCVVWDAAIVLSKYLETPEFSGDGAHALSRRSVLELGSGTGAVGLMAATLGADVVVTDLEELQDLLKMNINMNKHLVTGSVQAKVLKWGEEIEGFPSPPDFILMADCIYYEESLEPLLKTLKDISGFETCIICCYEQRTMGKNPEIEKKYFELLQLDFDFEKIPLEKHDEEYRSEDIHIIYIRKKKSKFPS
notes: METTL21D, human; also called GST-tagged METTL21D; wild type METTL21D; source: E. coli One Shot BL21 Star (DE3), purified (Glutathione Sepharose 4B)
binds: all assays above
